# According to US9926369B2, “Methods for treating hepatocellular cancer by administering an anti-Ang-2 antibody” (Regeneron Pharmaceuticals, Inc., priority 2009, dated 2018):
# T1: hAng-1-WT binding to hTie-2-mFc (Homo sapiens, UniProt Q15389)
# T1 sequence (Q15389 20-498 limits assumed): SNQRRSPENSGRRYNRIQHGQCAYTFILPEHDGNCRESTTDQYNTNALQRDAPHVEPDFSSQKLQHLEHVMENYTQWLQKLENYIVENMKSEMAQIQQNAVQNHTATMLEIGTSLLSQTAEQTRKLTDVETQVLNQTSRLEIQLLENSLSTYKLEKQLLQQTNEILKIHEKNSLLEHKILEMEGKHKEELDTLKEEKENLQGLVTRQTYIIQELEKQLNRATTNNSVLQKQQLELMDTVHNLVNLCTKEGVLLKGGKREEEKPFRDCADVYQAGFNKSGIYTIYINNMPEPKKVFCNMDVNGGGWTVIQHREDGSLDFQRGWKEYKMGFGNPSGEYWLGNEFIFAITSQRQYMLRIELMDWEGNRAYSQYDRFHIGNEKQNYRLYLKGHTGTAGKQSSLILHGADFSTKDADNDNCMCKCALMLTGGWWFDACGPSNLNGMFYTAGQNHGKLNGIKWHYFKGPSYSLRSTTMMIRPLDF
# T2: hAng-2-WT binding to hTie-2-mFc (Homo sapiens, UniProt O15123)
# T2 sequence (O15123 19-496): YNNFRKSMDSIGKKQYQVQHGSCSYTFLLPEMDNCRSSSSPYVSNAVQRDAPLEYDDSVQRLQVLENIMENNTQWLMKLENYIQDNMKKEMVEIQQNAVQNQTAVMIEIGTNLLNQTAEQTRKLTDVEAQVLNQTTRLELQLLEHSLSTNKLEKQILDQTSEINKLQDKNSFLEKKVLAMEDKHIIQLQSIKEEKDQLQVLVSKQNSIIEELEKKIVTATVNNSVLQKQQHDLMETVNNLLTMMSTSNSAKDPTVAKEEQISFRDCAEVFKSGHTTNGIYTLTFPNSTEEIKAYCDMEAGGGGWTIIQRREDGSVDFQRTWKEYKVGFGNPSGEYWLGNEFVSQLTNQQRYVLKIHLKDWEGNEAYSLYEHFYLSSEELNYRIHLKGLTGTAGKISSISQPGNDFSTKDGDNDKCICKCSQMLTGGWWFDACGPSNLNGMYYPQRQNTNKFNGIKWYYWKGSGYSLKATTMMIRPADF
# B1: H1H690P: anti-Ang-2 antibody, HCVR/LCVR SEQ ID NOs 42/44 (antibody, V domains shown)
# VH: EVQLVESGGGLVQPGESLRLSCAASGFTFSSYAMSWVRQGPGKGLEWVSSITGSGDTTYYADSVKGRFTISRDNSKNTLYLHMNSLRAEDTAVYYCAKDFLDYSTYLAFDLWGQGTMVTVSS
# VL: EIVLTQSPATLSLSPGERATLSCRASQSVSSYLTWYQQKPGQAPRLLSYDASNRATGIPARFSGSGSGTDFTLTISSLEPEDFAVYYCQQRSNWPLTFGGGTKVEIK
# B2: H1H724N: anti-Ang-2 antibody (724N) cloned onto human IgG1 (antibody, V domains shown)
# VH: QVQLVESGGGVVQPGRSLRLSCAASGFTLSNYGMHWVRQAPGKGLEWVAVIWHDGSNTYYADSVKGRFTISRDNSKNTLYLQMNSLRAEDTAVYYCTREGLDFWSGYYPNWFDPWGQGTLVTVSS
# VL: DIQMTQSPSSLSASVGDRVTITCRASQGIRNDLGWYQQKPGKAPKRLIYAASNLQGGVPSRFSGSGSGTEFTLTISSLQPEDFAAYYCLQHNIYPLTFGGGTKVEIK
# B3: hTie-2-mFc: chimeric construct consisting of human Tie-2 conjugated to mouse IgG; positive control for blocking (protein)
# chain: MDSLASLVLCGVSLLLSGTVEGAMDLILINSLPLVSDAETSLTCIASGWRPHEPITIGRDFEALMNQHQDPLEVTQDVTREWAKKVVWKREKASKINGAYFCEGRVRGEAIRIRTMKMRQQASFLPATLTMTVDKGDNVNISFKKVLIKEEDAVIYKNGSFIHSVPRHEVPDILEVHLPHAQPQDAGVYSARYIGGNLFTSAFTRLIVRRCEAQKWGPECNHLCTACMNNGVCHEDTGECICPPGFMGRTCEKACELHTFGRTCKERCSGQEGCKSYVFCLPDPYGCSCATGWKGLQCNEACHPGFYGPDCKLRCSCNNGEMCDRFQGCLCSPGWQGLQCEREGIPRMTPKIVDLPDHIEVNSGKFNPICKASGWPLPTNEEMTLVKPDGTVLHPKDFNHTDHFSVAIFTIHRILPPDSGVWVCSVNTVAGMVEKPFNISVKVLPKPLNAPNVIDTGHNFAVINISSEPYFGDGPIKSKKLLYKPVNHYEAWQHIQVTNEIVTLNYLEPRTEYELCVQLVRRGEGGEGHPGPVRRFTTASIGLPPPRGLNLLPKSQTTLNLTWQPIFPSSEDDFYVEVERRSVQKSDQQNIKVPGNLTSVLLNNLHPREQYVVRARVNTKAQGEWSEDLTAWTLSDILPPQPENIKISNITHSSAVISWTILDGYSISSITIRYKVQGKNEDQHVDVKIKNATIIQYQLKGLEPETAYQVDIFAENNIGSSNPAFSHELVTLPESQAPADLGGGKGPGEPRGPTIKPCPPCKCPAPNLLGGPSVFIFPPKIKDVLMISLSPIVTCVVVDVSEDDPDVQISWFVNNVEVHTAQTQTHREDYNSTLRVVSALPIQHQDWMSGKEFKCKVNNKDLPAPIERTISKPKGSVRAPQVYVLPPPEEEMTKKQVTLTCMVTDFMPEDIYVEWTNNGKTELNYKNTEPVLDSDGSYFMYSKLRVEKKNWVERNSYSCSVVHEGLHNHHTTKSFSRTPGK
# Assays:
# [1] = tested on: retinal superficial vasculature; assay: Retinal vascularization in hu-Ang-2 mice; assay type: in vivo; settings: 12.5 mg/kg subcutaneous at P2, retina at P5
# Description: (§1) In one set of experiments wild-type mice were used. In another set, mice expressing a human Ang-2 in place of the wild-type mouse Ang-2 (designated “hu-Ang-2 mice”) were used. The mice at two days of age (P2) were injected subcutaneously with either control Fc or with selected anti-Ang-2 antibodies at a dose of 12.5 mg/kg. Three days later (at P5), pups were euthanized, and eyeballs were enucleated and fixed in 4% PFA for 30 minutes. Retinas were dissected, stained with Griffonia simplicifolia lectin-1 for 3 hours or overnight at 4° C. to visualize the vasculature, and flat-mounted on microscope slides. Images were taken using a Nikon Eclipse 80i microscope camera and analyzed using Adobe Photoshop CS3, Fovea 4.0, and Scion 1.63 software.
# (§2) Areas of the retina covered with superficial vasculature were measured and used as a readout of antibody activity. The reduction in the size of the vascular areas in mice treated with antibody compared to Fc-treated controls is presented in Table 34. The percent reduction in vascular area reflects the anti-angiogenic potency of the antibody. (N/D=not determined)
# [2] = tested on: retinal superficial vasculature; assay: Retinal vascularization in wild-type mice; assay type: in vivo; settings: 12.5 mg/kg subcutaneous at P2, retina at P5
# Description: as §1, §2
# [3] = tested on: Tie-2 phosphorylation (Ang-2-mediated) in HUVECs; assay: Inhibition of Ang-2-mediated Tie-2 phosphorylation in FOXO1-adenovirus infected HUVECs; assay type: cell-based, human; settings: antibody 0.5 μg/ml
# Description: Further, the inventors have shown that infection of HUVECs with an adenovirus encoding FOXO1 results in expression and secretion of Ang-2, followed by activation of Tie-2 phosphorylation (Daly et al. 2006 PNAS 103:15491).
# Anti-Ang-2 antibodies were tested for their ability to inhibit Tie-2 phosphorylation. Briefly, 7×10^5 HUVECs (Vec Technologies, Rensselaer, N.Y.) were plated in 6 cm cell culture dishes in 3.5 ml of MCDB131 Complete medium (Vec Technologies, Rensselaer, N.Y.). The following day, the cells were washed with Opti-MEM (Invitrogen Corp., Carlsbad, Calif.) and fed with 2 ml of Opti-MEM. […] Cells were then washed with MCDB131 and fed with 2 ml of MCDB131 containing anti-Ang-2 antibodies at a concentration of 0.5 μg/ml. At twenty hours post infection, cells were lysed and subjected to Tie-2 immunoprecipitation as described by Daly et al., Proc. Natl. Acad. Sci. USA 103:15491-15496 (2006). Immunoglobulin was collected on protein A/G beads (Santa Cruz Biotechnology, Santa Cruz, Calif.) for one hour. Beads were washed with cold lysis buffer and resuspended in SDS sample buffer for analysis by western blot with antibodies specific for phosphotyrosine (Millipore, Billerica, Mass.) or Tie-2. Signals were detected using HRP-conjugated secondary antibodies and ECL reagents (GE Healthcare, Piscataway, N.J.). X-Ray films were scanned and the phospho-Tie-2 and Tie-2 signals were quantified using ImageJ software. The phospho-Tie-2/Tie-2 ratios were used to determine the % inhibition for each anti-Ang-2 antibody (i.e. Percent inhibition=Reduction in phospho-Tie-2/Tie-2 as compared to control).
# [4] = tested on: PC3 (Human Prostate Cancer Cell Line) tumors; assay: PC3 mouse tumor model; assay type: in vivo, NCr nude mice; settings: PC3, 10 mg/kg intraperitoneal twice per week
# Description: Briefly, 5×10^6 PC3 cells in 100 μl of growth factor-reduced Matrigel (BD Biosciences) were injected subcutaneously into the flanks of 6-8 week old male NCr nude mice (Taconic, Hudson, N.Y.). After tumor volumes reached an average of about 200 mm^3, mice were randomized into groups for treatment. […] Tumor volumes were measured twice per week over the course of the experiment and tumor weights were measured upon excision of tumors at the conclusion of the experiment. Averages (mean+/−standard deviation) of tumor weight and growth were calculated for each treatment group. Percent decrease of tumor weight and growth were calculated from comparison to Fc protein measurements.
# [5] = biological target: T1, hAng-1-WT binding to hTie-2-mFc; assay: Biosensor SPR blocking of hAng-1-WT binding to hTie-2-mFc-ecto surface; assay type: biochemical; settings: 10 nM hAng-1-WT
# Description: In an effort to further assess the ability of selected anti-hAng-2 antibodies to block the binding of Ang-1 to Tie-2, a biosensor surface plasmon resonance experiment was conducted. In this experiment, a human Tie-2 full-length extracellular domain construct (hTie-2-mFc-ecto) was amine-coupled on a BIACORE™ chip to create a receptor coated surface. Selected anti-hAng-2 antibodies and control constructs, at 1 μM (100-fold excess over antigen), were premixed with 10 nM of hAng-1-WT, followed by 60 minutes incubation at 25° C. to allow antibody-antigen binding to reach equilibrium to form equilibrated solutions. The equilibrated solutions were injected over the receptor surfaces at 5 μL/min for 5 minutes at 25° C. Changes in resonance units (RU) due to the binding of the hAng-1-WT to hTie-2-mFc were determined. An irrelevant peptibody construct with no binding to hAng-1 was included in this experiment to establish the 0% blocking baseline, and a human Tie-2-mFc construct was used as a positive control for blocking. The amount of Ang-1 bound to Tie-2 following antibody preincubation, expressed as a percentage of the amount of Ang-1 bound to Tie-2 following negative control preincubation, is shown in Table 20. (A greater amount of Ang-1 binding to Tie-2 signifies a lower degree of antibody blocking).
# (§3) The foregoing experiment was repeated using different amounts of Ang-2 blockers and controls. In particular, a human Tie-2 full-length extracellular domain construct (hTie-2-mFc-ecto) was amine-coupled on a BIACORE™ chip to create a receptor-coated surface. Selected anti-hAng-2 antibodies and control constructs (50 or 150 nM) were mixed with hAng-2-WT (25 nM) followed by 60 minutes incubation at 25° C. to allow antibody-antigen binding to reach equilibrium. The equilibrated solutions were injected over the receptor surfaces at 10 μL/min for 5 minutes at 25° C. To evaluate the ability of the selected anti-hAng-2 antibodies to block Ang-1-WT binding to hTie-2, a similar procedure was followed except the antibodies were tested at three concentrations (50, 100 or 1000 nM) and incubated with 10 nM of hAng-1-WT. Changes in resonance units (RU) due to the binding of the Ang-2-WT or hAng-1-WT to hTie-2-mFc were determined. An irrelevant antibody with no binding to either angiopoietin was included in these experiments to establish the 0% blocking baseline, and a human Tie-2-mFc construct was used as a positive control for blocking. Results are summarized in Tables 21 (hAng-1 applied to a hTie-2 surface) and 22 (hAng-2 applied to a hTie-2 surface).
# [6] = biological target: T2, hAng-2-WT binding to hTie-2-mFc; assay: Biosensor SPR blocking of hAng-2-WT binding to hTie-2-mFc-ecto surface; assay type: biochemical; settings: 25 nM hAng-2-WT
# Description: as §3
Molecule,"% Reduction in Vascular Area Relative to Fc Control, hAng-2 Mice [1] [%]","% Reduction in Vascular Area Relative to Fc Control, Wild-Type Mice [2] [%]",Inhibition of Tie-2 phosphorylation [3],Inhibition of Tie-2 phosphorylation (in words) [3],"Avg Tumor Weight ([4]; approximately three weeks, mean ± SD) [g]",Avg Tumor Growth ([4]; mean ± SD) [mm^3],% Decrease in Tumor Growth ([4]; vs Fc protein) [%],% Decrease in Tumor Weight ([4]; vs Fc protein) [%],Percent of Neg. Ctrl Binding (hAng-1 WT) ([5]; 50 nM antibody or control) [%],Specific Bound RU (hAng-1 WT) ([5]; 50 nM antibody or control) [RU],Percent of Neg. Ctrl Binding (hAng-1 WT) ([5]; 100 nM antibody or control) [%],Specific Bound RU (hAng-1 WT) ([5]; 100 nM antibody or control) [RU],Percent of Neg. Ctrl Binding (hAng-1 WT) ([5]; 1000 nM antibody or control) [%],Specific Bound RU (hAng-1 WT) ([5]; 1000 nM antibody or control) [RU],Percent of Neg. Ctrl Binding (hAng-2 WT) ([6]; 50 nM antibody or control) [%],Specific Bound RU (hAng-2 WT) ([6]; 50 nM antibody or control) [RU],Percent of Neg. Ctrl Binding (hAng-2 WT) ([6]; 150 nM antibody or control) [%],Specific Bound RU (hAng-2 WT) ([6]; 150 nM antibody or control) [RU]
B1,41.5,30.7,+++ (75-100%),Especially robust inhibition,,,,,,,,,,,,,,
B2,33.2,32.2,,,0.55 ± 0.07,392 ± 169,23,17,,,,,,,,,,
B3,,,,,,,,,22,70,13,39,0,−47,35,97,30,82
